Test results as given in US20250340598A1.
Several values for one entry are separate records, joined by “and”; a condition that tells them apart may be missing. Equal values may be shown once.

For CH01 UCA (antibody), the IC50, neutralization (CAP256SU_UCA_OPT) was 1.92 µg/mL.

In the case of CAP256 VRC26 UCA (antibody), the fold reduction of neutralization reactivity (CAP256SU_UCA_OPT_3.0) is reported as 3 fold and 4 fold and the IC50, neutralization (CAP256SU (HIV-1)) is reported as 35 µg/mL.

Substance PG16 RUA (antibody) has a fold improvement of neutralization sensitivity (CH505_V2UCAOPT_v3.0) of 100 fold, a fold enhancement of neutralization sensitivity (CAM13RRK) of 50 fold and a fold enhancement of neutralization sensitivity (CAM13K+K169R (SIVcpz)) of 10 fold.

In the case of PCT64 LMCA (antibody), the IC50, pseudovirus neutralization (CH505 UCA_OPT2+N332) is reported as 105 µg/mL and the 50% neutralization, pseudovirus neutralization (CH505 UCA_OPT_2+H130D) is reported as 100 µg/mL.
